{"source": "paper PMC10385628", "origin": "cited, not measured here", "molecular_target": "neuropilin-1 (Homo sapiens) (UniProt O14786)", "sequence (O14786 22-856)": "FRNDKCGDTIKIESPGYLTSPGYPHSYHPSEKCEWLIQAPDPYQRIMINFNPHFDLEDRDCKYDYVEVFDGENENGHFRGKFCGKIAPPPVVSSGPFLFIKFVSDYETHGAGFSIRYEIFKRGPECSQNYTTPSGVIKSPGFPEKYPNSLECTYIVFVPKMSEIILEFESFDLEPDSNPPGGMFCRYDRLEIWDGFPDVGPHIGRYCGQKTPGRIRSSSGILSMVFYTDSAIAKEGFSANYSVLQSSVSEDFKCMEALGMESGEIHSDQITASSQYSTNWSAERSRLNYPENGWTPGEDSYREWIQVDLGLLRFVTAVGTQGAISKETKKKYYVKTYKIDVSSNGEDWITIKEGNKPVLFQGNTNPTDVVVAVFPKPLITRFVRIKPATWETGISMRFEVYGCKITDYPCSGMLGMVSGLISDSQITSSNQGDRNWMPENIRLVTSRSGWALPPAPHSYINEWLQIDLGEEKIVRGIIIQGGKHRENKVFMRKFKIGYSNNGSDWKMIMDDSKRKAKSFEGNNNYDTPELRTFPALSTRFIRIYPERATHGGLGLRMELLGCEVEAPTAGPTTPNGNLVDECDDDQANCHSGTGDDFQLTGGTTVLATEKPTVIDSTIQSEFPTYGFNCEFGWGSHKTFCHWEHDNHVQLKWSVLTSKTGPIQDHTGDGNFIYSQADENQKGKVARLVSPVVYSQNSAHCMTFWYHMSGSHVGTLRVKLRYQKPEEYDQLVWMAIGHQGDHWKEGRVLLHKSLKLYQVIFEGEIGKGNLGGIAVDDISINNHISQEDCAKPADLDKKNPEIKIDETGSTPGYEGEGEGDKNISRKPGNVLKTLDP"}
{"substance": "KDKPPR peptide", "values": [{"measurement": "Kd", "value": 500, "unit": "nM"}]}
